# Results reported in patent US20150258192A1, “COMPOSITIONS AND METHODS FOR PREVENTING OR TREATING CHRONIC LUNG ALLOGRAFT DYSFUNCTION (CLAD) AND IDIOPATHIC PULMONARY FIBROSIS (IPF)” (priority 2014, published 2015).
# No end group written: not given here.
# Target: T1, NEK2(h) (Homo sapiens, UniProt P51955)
# T1 construct: purchased Millipore
# T1 sequence (P51955 1-445): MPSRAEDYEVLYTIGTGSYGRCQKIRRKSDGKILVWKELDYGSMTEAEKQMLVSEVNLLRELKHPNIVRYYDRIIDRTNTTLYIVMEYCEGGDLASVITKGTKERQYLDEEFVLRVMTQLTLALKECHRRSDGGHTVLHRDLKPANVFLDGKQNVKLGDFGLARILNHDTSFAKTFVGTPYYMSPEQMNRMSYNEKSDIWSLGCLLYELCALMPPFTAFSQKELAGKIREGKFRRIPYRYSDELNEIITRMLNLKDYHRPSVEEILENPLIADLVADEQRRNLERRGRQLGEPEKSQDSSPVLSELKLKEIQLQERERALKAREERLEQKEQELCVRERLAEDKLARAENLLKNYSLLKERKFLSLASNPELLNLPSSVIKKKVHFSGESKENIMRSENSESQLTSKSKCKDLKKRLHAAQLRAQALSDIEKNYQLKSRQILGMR
# Assay: Kinase Profiling Assay
# Format: biochemical
# Details: peptide 100 μM
# Summary of the method: (§1)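 Radiometric filter-binding format: cationic substrate takes up labeled phosphate from ATP unless the inhibitor peptide blocks the kinase. Substrate bound to an anionic filter, scintillation-counted, normalized to 100% activity control. Duplicates; part of a 266-kinase selectivity panel for MK2 peptides.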
row,Sequence,% activity [%]
1,FAKLAARLYRKALARQLGVAA [MMI-0300],78
2,HRRIKAWLKKIKALARQLGVAA (Mammal) [MMI-0500],0
3,KAFAKLAARLYRKALARQLGVAA [MMI-0400],61
4,YARAAARQARAKALNRQLGVA (Mammal) [MMI-0200],97

# Target: T2, SGK3(h) (Homo sapiens, UniProt Q96BR1)
# T2 construct: purchased Millipore
# T2 sequence (Q96BR1 1-496): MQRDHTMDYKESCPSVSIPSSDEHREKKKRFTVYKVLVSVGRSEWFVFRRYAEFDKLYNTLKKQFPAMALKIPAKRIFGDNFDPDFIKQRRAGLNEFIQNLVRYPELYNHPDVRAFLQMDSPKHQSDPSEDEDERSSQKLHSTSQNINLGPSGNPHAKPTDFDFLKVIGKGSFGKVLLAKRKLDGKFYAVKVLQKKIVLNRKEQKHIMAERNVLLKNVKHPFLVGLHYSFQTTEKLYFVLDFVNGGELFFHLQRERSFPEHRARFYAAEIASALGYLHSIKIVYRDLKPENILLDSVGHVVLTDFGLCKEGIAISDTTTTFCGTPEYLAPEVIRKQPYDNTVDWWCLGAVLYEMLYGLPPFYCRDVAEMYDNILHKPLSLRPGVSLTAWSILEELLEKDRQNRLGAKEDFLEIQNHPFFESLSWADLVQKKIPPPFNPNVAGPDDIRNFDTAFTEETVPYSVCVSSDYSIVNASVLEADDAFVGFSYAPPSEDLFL
# Assay: Kinase Profiling Assay
# Format: biochemical
# Details: peptide 100 μM
# Summary of the method: as §1
row,Sequence,% activity [%]
1,FAKLAARLYRKALARQLGVAA [MMI-0300],10
2,HRRIKAWLKKIKALARQLGVAA (Mammal) [MMI-0500],-3
3,KAFAKLAARLYRKALARQLGVAA [MMI-0400],8
4,YARAAARQARAKALARQLGVAA [MMI-0100],95
5,YARAAARQARAKALNRQLGVA (Mammal) [MMI-0200],58

# Target: CDK3/cyclinE(h) (Homo sapiens, UniProt Q00526)
# Assay: Kinase Profiling Assay
# Format: biochemical
# Details: peptide 100 μM
# Summary of the method: as §1
# Sequence of CDK3/cyclinE(h) (Q00526 whole entry): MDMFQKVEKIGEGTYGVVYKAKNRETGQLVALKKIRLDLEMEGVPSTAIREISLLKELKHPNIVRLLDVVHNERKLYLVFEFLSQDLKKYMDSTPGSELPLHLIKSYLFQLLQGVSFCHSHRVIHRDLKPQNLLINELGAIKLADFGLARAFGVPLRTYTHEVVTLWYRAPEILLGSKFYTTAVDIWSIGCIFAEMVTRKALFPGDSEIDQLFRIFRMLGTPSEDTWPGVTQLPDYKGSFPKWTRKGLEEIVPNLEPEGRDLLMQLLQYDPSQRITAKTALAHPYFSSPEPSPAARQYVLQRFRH
# Sequence of CDK3/cyclinE(h) (P24864 whole entry partner): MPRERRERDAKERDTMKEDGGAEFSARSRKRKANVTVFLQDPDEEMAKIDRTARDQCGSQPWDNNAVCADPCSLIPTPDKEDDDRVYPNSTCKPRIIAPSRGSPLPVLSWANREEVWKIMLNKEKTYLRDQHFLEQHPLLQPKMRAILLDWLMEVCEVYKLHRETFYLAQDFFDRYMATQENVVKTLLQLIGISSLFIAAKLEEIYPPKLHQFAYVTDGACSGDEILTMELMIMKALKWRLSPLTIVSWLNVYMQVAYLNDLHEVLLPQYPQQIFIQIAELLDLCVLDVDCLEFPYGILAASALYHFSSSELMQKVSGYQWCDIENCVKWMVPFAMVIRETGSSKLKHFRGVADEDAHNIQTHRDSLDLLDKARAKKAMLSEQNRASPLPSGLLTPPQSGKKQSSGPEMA
row,Sequence,% activity [%]
1,FAKLAARLYRKALARQLGVAA [MMI-0300],94
2,HRRIKAWLKKIKALARQLGVAA (Mammal) [MMI-0500],8
3,KAFAKLAARLYRKALARQLGVAA [MMI-0400],92

# Target: BRK(h) (Homo sapiens, UniProt Q13882)
# Assay: Kinase Profiling Assay
# Format: biochemical
# Details: peptide 100 μM
# Summary of the method: as §1
# Sequence of BRK(h) (Q13882 whole entry): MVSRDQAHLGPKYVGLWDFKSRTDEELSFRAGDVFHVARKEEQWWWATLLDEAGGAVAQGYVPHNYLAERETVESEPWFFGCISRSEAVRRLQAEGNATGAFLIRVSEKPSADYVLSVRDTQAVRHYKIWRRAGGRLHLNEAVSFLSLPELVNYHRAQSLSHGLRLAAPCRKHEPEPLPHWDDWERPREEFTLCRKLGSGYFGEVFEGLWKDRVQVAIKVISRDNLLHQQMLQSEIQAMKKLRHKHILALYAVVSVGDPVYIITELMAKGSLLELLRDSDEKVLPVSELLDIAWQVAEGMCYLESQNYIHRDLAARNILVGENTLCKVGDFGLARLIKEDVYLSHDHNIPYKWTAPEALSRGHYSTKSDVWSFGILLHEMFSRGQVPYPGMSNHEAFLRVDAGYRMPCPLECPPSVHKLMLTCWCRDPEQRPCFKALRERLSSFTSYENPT
row,Sequence,% activity [%]
1,FAKLAARLYRKALARQLGVAA [MMI-0300],35
2,HRRIKAWLKKIKALARQLGVAA (Mammal) [MMI-0500],41
3,KAFAKLAARLYRKALARQLGVAA [MMI-0400],18
4,YARAAARQARAKALARQLGVAA [MMI-0100],70
5,YARAAARQARAKALNRQLGVA (Mammal) [MMI-0200],127

# Target: T3, TAO2(h) (Homo sapiens, UniProt Q9UL54)
# T3 construct: purchased Millipore
# T3 sequence (Q9UL54 1-1235): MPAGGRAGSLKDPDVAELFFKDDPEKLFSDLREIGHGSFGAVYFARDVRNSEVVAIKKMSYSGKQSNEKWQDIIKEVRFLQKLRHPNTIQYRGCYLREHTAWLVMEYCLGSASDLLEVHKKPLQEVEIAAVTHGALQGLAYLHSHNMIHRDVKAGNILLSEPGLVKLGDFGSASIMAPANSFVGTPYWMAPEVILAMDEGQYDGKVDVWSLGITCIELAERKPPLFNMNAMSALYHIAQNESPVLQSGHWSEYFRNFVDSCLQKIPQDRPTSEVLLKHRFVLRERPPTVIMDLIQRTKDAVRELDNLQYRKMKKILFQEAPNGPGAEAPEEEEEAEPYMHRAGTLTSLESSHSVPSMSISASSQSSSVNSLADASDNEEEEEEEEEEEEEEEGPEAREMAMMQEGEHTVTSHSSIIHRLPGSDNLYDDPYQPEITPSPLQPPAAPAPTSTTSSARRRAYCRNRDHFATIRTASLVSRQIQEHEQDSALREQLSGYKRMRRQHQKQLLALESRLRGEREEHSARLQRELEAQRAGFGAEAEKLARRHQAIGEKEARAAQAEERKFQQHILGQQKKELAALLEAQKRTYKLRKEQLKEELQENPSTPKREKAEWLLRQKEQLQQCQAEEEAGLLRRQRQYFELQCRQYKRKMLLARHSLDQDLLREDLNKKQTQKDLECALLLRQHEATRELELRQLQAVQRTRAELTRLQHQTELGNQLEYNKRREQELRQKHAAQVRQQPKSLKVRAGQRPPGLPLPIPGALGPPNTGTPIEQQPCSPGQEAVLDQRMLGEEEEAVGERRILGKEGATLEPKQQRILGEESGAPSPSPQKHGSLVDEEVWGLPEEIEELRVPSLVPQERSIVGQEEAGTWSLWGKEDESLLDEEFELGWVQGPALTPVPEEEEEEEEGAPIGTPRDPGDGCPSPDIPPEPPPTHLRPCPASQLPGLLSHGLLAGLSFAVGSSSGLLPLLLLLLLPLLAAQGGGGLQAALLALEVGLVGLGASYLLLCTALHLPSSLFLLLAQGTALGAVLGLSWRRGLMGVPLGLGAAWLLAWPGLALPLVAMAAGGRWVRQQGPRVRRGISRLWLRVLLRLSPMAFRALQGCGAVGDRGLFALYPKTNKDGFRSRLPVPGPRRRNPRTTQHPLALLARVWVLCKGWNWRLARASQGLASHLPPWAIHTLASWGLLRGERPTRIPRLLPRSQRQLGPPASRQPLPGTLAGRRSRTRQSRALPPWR
# Assay: Kinase Profiling Assay
# Format: biochemical
# Details: peptide 100 μM
# Summary of the method: as §1
row,Sequence,% activity [%]
1,FAKLAARLYRKALARQLGVAA [MMI-0300],70
2,HRRIKAWLKKIKALARQLGVAA (Mammal) [MMI-0500],15
3,KAFAKLAARLYRKALARQLGVAA [MMI-0400],74
4,YARAAARQARAKALARQLGVAA [MMI-0100],95
5,YARAAARQARAKALNRQLGVA (Mammal) [MMI-0200],93
